Reference: article doi:10.1101/2022.07.12.499507 (bioRxiv, 2022)

T1: Epl1 (Saccharomyces cerevisiae, UniProt P43572 1-832)
T1 sequence: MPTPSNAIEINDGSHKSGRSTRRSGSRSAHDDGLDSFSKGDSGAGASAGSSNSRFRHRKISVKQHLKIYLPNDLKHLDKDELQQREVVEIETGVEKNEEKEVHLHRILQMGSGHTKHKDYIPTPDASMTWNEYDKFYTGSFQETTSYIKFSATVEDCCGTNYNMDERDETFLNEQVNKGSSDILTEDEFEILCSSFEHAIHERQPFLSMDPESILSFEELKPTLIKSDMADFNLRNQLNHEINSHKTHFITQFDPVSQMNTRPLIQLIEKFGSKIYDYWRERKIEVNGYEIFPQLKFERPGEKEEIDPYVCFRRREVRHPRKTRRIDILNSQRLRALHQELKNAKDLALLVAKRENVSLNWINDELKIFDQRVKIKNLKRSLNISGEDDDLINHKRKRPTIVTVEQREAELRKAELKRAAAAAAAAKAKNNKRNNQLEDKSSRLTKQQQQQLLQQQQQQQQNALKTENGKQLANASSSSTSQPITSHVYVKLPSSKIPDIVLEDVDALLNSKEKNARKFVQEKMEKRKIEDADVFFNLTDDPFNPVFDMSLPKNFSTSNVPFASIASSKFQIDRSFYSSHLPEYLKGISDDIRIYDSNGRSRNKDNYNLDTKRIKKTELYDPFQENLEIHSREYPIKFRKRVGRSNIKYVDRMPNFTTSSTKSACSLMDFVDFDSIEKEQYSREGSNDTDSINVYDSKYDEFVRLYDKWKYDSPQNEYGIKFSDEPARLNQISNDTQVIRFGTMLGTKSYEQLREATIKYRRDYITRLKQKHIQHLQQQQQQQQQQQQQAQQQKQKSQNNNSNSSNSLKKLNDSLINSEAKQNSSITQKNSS


Legend:
[1] = molecular target: Tra1 (Saccharomyces cerevisiae, UniProt P38811 1-3744); experiment: cross-linking
Chain of Tra1 (P38811 whole entry): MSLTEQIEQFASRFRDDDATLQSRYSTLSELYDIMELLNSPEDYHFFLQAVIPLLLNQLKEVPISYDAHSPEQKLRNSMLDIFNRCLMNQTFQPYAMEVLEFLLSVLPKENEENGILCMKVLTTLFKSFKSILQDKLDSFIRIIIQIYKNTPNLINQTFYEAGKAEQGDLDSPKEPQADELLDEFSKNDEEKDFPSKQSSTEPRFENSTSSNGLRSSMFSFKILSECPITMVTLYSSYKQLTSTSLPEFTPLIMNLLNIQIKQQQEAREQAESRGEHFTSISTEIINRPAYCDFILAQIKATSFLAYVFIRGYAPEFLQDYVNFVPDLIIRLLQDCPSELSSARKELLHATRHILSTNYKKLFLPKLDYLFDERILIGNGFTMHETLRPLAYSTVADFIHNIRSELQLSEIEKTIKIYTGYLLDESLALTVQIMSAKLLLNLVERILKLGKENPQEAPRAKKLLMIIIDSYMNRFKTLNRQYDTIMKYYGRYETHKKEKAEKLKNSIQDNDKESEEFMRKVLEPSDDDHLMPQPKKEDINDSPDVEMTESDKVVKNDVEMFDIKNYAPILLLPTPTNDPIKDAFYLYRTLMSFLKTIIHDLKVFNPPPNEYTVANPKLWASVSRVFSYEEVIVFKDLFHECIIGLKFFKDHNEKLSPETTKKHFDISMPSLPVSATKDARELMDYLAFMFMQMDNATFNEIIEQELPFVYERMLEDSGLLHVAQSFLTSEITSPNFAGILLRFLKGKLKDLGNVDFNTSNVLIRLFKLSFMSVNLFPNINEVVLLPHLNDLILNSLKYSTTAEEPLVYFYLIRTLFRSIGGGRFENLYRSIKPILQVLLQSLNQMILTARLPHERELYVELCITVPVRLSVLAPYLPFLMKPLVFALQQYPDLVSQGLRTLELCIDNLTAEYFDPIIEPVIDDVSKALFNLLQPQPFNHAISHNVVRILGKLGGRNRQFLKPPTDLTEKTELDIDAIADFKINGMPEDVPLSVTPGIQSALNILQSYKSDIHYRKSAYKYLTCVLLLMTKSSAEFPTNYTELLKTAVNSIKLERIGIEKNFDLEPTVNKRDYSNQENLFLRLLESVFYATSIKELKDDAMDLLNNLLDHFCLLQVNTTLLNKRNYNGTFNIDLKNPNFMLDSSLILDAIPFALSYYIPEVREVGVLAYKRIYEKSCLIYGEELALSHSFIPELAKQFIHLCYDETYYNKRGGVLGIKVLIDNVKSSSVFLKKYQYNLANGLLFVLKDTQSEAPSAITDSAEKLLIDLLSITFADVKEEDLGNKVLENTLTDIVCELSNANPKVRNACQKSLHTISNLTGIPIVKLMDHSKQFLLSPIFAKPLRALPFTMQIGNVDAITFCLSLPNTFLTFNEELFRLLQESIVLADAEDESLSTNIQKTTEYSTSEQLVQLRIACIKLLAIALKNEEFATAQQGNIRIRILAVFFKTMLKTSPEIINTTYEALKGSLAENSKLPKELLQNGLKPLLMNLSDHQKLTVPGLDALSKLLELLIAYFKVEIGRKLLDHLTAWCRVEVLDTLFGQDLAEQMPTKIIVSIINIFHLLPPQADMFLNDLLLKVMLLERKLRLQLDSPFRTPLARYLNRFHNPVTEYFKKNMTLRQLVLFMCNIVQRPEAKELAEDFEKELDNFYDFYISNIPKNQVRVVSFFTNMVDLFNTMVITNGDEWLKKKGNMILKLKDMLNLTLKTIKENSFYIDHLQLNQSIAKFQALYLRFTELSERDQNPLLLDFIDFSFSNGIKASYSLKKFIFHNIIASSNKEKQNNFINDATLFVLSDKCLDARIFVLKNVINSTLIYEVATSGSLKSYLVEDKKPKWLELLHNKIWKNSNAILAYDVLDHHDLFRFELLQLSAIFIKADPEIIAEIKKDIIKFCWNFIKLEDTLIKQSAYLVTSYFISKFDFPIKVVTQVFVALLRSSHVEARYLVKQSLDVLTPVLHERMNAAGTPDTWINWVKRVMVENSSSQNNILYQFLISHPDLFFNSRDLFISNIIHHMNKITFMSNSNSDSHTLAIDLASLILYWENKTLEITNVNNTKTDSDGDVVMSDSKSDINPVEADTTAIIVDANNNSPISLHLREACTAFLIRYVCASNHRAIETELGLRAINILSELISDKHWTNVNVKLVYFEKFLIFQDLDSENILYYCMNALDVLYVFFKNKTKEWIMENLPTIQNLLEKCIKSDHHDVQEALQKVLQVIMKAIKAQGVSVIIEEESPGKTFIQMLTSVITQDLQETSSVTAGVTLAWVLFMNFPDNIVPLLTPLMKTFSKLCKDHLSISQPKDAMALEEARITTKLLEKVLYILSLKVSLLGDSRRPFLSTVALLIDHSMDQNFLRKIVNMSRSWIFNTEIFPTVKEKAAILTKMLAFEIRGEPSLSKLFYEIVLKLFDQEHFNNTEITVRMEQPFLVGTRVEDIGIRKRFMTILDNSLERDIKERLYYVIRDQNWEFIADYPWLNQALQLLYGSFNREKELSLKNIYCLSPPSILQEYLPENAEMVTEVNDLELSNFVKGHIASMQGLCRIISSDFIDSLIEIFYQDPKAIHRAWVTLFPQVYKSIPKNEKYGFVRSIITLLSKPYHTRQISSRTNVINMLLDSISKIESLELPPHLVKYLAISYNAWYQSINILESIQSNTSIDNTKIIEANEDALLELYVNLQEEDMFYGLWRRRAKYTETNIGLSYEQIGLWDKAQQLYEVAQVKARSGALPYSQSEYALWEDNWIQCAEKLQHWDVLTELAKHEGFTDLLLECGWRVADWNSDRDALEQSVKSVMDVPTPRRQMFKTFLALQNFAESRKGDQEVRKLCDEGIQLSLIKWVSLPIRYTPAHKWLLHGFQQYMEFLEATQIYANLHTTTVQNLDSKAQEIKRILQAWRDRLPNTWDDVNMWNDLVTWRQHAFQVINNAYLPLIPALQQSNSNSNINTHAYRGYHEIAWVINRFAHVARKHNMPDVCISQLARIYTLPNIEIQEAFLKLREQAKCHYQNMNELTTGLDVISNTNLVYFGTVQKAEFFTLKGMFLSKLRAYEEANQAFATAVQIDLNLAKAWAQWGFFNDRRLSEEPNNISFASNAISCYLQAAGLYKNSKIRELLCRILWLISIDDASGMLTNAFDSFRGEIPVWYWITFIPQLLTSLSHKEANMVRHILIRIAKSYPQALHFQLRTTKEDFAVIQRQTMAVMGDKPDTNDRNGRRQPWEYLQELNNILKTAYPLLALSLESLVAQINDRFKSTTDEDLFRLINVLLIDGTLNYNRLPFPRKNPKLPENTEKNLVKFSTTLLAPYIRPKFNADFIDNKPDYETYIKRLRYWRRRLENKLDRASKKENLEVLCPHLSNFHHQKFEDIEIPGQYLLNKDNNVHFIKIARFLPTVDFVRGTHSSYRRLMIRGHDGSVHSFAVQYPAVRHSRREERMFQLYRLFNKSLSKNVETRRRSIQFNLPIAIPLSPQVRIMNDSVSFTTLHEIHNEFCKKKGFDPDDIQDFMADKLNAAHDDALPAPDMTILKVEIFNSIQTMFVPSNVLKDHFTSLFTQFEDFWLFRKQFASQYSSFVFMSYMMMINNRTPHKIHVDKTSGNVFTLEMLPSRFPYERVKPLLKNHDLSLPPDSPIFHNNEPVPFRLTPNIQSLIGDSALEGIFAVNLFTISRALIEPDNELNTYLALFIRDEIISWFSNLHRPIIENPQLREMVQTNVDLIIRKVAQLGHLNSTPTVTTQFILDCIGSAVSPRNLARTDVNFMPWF

[2] = molecular target: T1, Epl1; experiment: cryo-EM structure

Binder	binding result [1]	binding result [2]
Gal4-VP16 fusion protein (other) MKLLSSIEQACDICRLKKLKCSKEKPKCAKCLKNNWECRYSPKTKRSPLTRAHLTEVESRLERLEQLFLLIFPREDLDMILKMDSLQDIKALLTGLFVQDNVNKDAVTDRLASVETDMPLTLRQHRISATSSSEESSNKGQRQLTVSAPPTDVSLGDELHLDGEDVAMAHADALDDFDLDMLGDGDSPGPGFTPHDSAPYGALDMADFEFEQMFTDALGIDEYGG	binds	
Eaf1 (natural protein) MSSRPSSAVPNSASLSEDQSSDRSKFPKADDLIDERDRKLTELYCVSRLNQLLELTDENKLRKEIDAFLKKNDIRRGIRFDEASLPKLLHTAATPITKKKLKDVNLINVPNQRLSDSKMSRELPENSENVSVKSESHFVPSHDNSIRENMMDSLRPAEKTGGMWNKRPLESTMGGEEERHEKRQKMQSQSLESSNNSEMASLPISPRPPVPNALAHYTYYENIEYPPADPTEVQPAVKFKDPLIKNIMAKEIDTSDHYNENNVDALETVFLLMNDYIPSKIPQALPLAELKYMSQTLPLINLIPRAHKALTTNIINNALNEARITVVGSRIEELRRLGLWSLRQPKRFIDPWKQHNTHQNILLEEAKWMQADFKEGHKYKVAICTAMAQAIKDYWTYGEICCVKRKTLLPGKENKLSDDGRISEKSGRPSDTSRNDSDISIAGKDDIGIIANVDDITEKESAAANDNDENGKNEAGAKSDFDFADGLLSQEGAHDQIISSIDTKLLLKKPSSSSEVVLIQHEVAASSALIETEESKKELAPPFKLSIFVDELNTFEKTLIQDLPLYNGINEERPKKDDSLPFIPISKSVVSLDDNGFYKLLERQLIDEEPSISQLSKRRGMFYGNRRNHYLRPPAVPSLRYLQNRTPTIWLSEDDQELVKNINTYGYNWELISAHMTHRLTYSYLSNIERRTPWQCFERFVQLNERFNFSDLKGPRAHSAQQWLIEAHKFQQRQNRRISPLGVNTESIQRGHRRLRWASMFEAIRKCMKKRENTPRPNPTQPRKPLDCKNMKVPTPAEMSLLKAQRDEALRRDIQLRRTVKNRLQQRQQQSQQAHSSRAQSPIPSNGKSSSNLARNGQASAPRPNQKQYTEQDIIESYSRKLLEQKPDIGPEMALKAAKNYYRTLREQQQQLKQHQIQQQRQQLQEESSHVQQLQQLQPGSQAPPPKSSPSQSSLSNISNINSAPRIKSPTPQEILQRFQKQ	binds	
Yng2 (natural protein) MDPSLVLEQTIQDVSNLPSEFRYLLEEIGSNDLKLIEEKKKYEQKESQIHKFIRQQGSIPKHPQEDGLDKEIKESLLKCQSLQREKCVLANTALFLIARHLNKLEKNIALLEEDGVLAPVEEDGDMDSAAEASRESSVVSNSSVKKRRAASSSGSVPPTLKKKKTSRTSKLQNEIDVSSREKSVTPVSPSIEKKIARTKEFKNSRNGKGQNGSPENEEEDKTLYCFCQRVSFGEMVACDGPNCKYEWFHYDCVNLKEPPKGTWYCPECKIEMEKNKLKRKRN		binds
Esa1 (enzyme) MSHDGKEEPGIAKKINSVDDIIIKCQCWVQKNDEERLAEILSINTRKAPPKFYVHYVNYNKRLDEWITTDRINLDKEVLYPKLKATDEDNKKQKKKKATNTSETPQDSLQDGVDGFSRENTDVMDLDNLNVQGIKDENISHEDEIKKLRTSGSMTQNPHEVARVRNLNRIIMGKYEIEPWYFSPYPIELTDEDFIYIDDFTLQYFGSKKQYERYRKKCTLRHPPGNEIYRDDYVSFFEIDGRKQRTWCRNLCLLSKLFLDHKTLYYDVDPFLFYCMTRRDELGHHLVGYFSKEKESADGYNVACILTLPQYQRMGYGKLLIEFSYELSKKENKVGSPEKPLSDLGLLSYRAYWSDTLITLLVEHQKEITIDEISSMTSMTTTDILHTAKTLNILRYYKGQHIIFLNEDILDRYNRLKAKKRRTIDPNRLIWKPPVFTASQLRFAW		binds
